Columns and labels:
[1] = biological target: Human prolactin receptor, endogenous on human breast cancer cell lines (human (endogenous in T47D, SKBR3, MDA-MB-468, MCF-7, BT474)) (UniProt P16471)
[2] = biological target: Human prolactin receptor, endogenous on human breast cancer cell lines (human (endogenous in T47D, SKBR3, MDA-MB-468, MCF-7, BT474)) (UniProt P16471); remark: listed apart in the source

UniProt P16471, sequence (P16471 25-622, stated change not applied): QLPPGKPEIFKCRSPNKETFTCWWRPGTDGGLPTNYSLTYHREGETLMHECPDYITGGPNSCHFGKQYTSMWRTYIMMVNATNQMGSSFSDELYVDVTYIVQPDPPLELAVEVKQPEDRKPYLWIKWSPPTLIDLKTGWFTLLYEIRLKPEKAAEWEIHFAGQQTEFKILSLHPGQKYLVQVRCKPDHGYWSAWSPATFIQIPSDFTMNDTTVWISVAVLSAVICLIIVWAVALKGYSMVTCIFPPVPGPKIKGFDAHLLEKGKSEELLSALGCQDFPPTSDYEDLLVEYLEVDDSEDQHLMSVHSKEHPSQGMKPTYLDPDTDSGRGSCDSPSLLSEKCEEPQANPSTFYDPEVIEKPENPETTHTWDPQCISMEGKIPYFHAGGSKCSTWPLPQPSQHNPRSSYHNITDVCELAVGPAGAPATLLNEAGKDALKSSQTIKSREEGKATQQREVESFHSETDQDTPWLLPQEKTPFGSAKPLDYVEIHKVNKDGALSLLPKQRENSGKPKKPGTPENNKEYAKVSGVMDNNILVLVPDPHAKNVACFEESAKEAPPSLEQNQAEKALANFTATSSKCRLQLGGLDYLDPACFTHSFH

## Recombinant human prolactin (from UniProt P01236 29-227) (ligand)
[1]
  loss of prolactin-stimulated Stat5 and Erk phosphorylation in T47D and SKBR3 cells over pHe 7.4 to 6.6; percent diminished at pHe 6.8 against pHe 7.4: > 80%
[2]
  EC50 of prolactin (1 to 100 nM, 15 min) for Stat5 tyrosine phosphorylation in SKBR3 cells at pHe 6.8: 119 nM
  EC50 of prolactin (1 to 100 nM, 15 min) for Stat5 tyrosine phosphorylation in SKBR3 cells at pHe 7.4: 3.3 nM
  EC50 of prolactin (1 to 100 nM, 15 min) for Stat5 tyrosine phosphorylation in T47D cells at pHe 6.8: 37.8 nM
  EC50 of prolactin (1 to 100 nM, 15 min) for Stat5 tyrosine phosphorylation in T47D cells at pHe 7.4: 3.7 nM

— PMC3978581
